Reference: patent US8404239B2, “Anti-Notch2 NRR antibodies” (Genentech, Inc., priority 2008, dated 2013)
Where “and” joins values, the source holds several entries; their conditions need not be identical. Equal values may be shown once.

Assays:
LOX-IMVI melanoma cells = experiment: Cell Titer Glo viability of melanoma cell line LOX-IMVI; assay type: cell-based, human; conditions: six days, antibodies 20 mg/ml, DAPT 5 μM, ± Jagged-1
Description: (§1) Human melanoma cell lines SK23 and LOX-IMVI were plated in medium containing 2% FBS at low density (4000 cells/well for SK23, 2500 cells/well for LOX-IMVI) in 96 well plates that were coated without (−jag-1) or with Jagged-1 ligand (+jag-1) (R&D Systems, Minneapolis, Minn.). […] An equal volume of DMSO served as the vehicle control, whereas an equal concentration of anti-gD HuB6 phage antibody served as the isotype control antibody. Cell Titer Glo assays (Promega, Madison, Wis.) were performed six days after plating. […] In FIGS. 25A and 25B, cell viability (y-axis) is expressed relative to the values from the DMSO vehicle, −jag-1 control wells.

[1] = tested on: other three non-targeted receptors; experiment: Binding to non-targeted Notch receptors (SPR, ELISA, FACS); set-up: species or system human, mouse; conditions: ELISA and FACS
Description: Binding affinities of anti-Notch2 NRR antibodies were measured by Surface Plasmon Resonance (SRP) using a BIAcore™-3000 instrument. Anti-Notch2 NRR human IgGs were captured by mouse anti-human IgG coated on the CM5 sensor chip to achieve approximately 200 response units (RU). For kinetics measurements, two-fold serial dilutions of human and mouse Notch2 NRR (3.9 nM to 500 nM) were injected in PBT buffer (PBS with 0.05% Tween 20) at 25° C. with a flow rate of 30 μl/min. Association rates (kon) and dissociation rates (koff) were calculated using a simple one-to-one Langmuir binding model (BIAcore Evaluation Software version 3.2). The equilibrium dissociation constant (KD) was calculated as the ratio koff/kon.
Anti-Flag antibody was used to capture Flag-Tagged NRR protein from all four Notch receptors in a black walled, high binding plate (Greiner). NRR antibody and E25 control antibodies were bound to the NRR proteins and washed away with PBS. An Alkaline Phosphate conjugated anti-human (H+L) secondary antibody (Jackson ImmunoResearch) was used to detect bound anti-NRR and E25. Unbound secondary was washed away and AP was detected with PNPP substrate (Pierce). […]

[2] = tested on: Notch1-NRR / Notch2 NRR chimeric proteins; experiment: Epitope mapping: plate binding to Notch1-NRR/Notch2 NRR chimeric proteins fused to alkaline phosphatase; conditions: domain swap
Description: The indicated NRR protein fragments (dark blue, Notch1 sequences; light blue, Notch2 sequences) were expressed as secreted proteins fused to alkaline phosphatase to enable rapid measurements of antibody binding in a plate-based assay. […] Antibody binding was assessed by measuring alkaline phosphatase activity that remained bound to the plate. […] (B) Structure of human Notch NRR1. NRR1 is shown as a C-alpha cartoon. The three calcium ions in the LNR motifs are shown as spheres. The position of the S2 cleavage site is marked with an arrow. (C) Superposition of NRR1 on NRR2 (chain A from pdb code 2OO4) based on structurally conserved atoms. NRR1 (shaded) and NRR2 (white) are shown as C-alpha traces. (D) Open-book view of the interface between NRR1 (left) and α-NRR1 Fab (right, border between heavy and light chains shown as a black dashed line). The extent to which the solvent accessible surface area is buried by complex formation is indicated.
Synthetic Notch1 and Notch2 NRR sequences were designed with unique restriction sites at junctions between the five domains of the NRR-LNR-A; LNR-B; LNR-C; HD-N; and HD-C—and produced by Blue Heron Technology (Bothell, Wash.). Swapping various domains between the two synthetic sequences, using the engineered restriction sites, generated chimeric NRR proteins. The chimeric clones were assembled in a modified pUC19 vector and transferred to a SEAP containing vector, pCSC.AP, for expression. AP-tagged NRR proteins were produced by transfection of 293T cells. After 72 hr culture, the conditioned media was collected, cleared by centrifugation, and tested for AP activity using the Phospha-Light System (Applied Biosystems, Bedford, Mass.). The AP activity in each sample was normalized and an ELISA was performed to test the ability of α-NRR1 or α-NRR2 to bind the chimeric NRR proteins. The ELISA was performed as follows: either α-NRR1 or α-NRR2 was captured by a plate bound α-Fc antibody in 96-well format and incubated with the conditioned media overnight. The plate was washed to remove unbound protein, and the captured protein was tested for AP activity using the Phospha-Light System.

SK23 melanoma cells = experiment: Cell Titer Glo viability of melanoma cell line SK23; assay type: cell-based, human; conditions: six days, antibodies 20 mg/ml, DAPT 5 μM, ± Jagged-1
Description: as §1

[3] = tested on: splenic marginal zone B (MZB) cells; experiment: Marginal zone B cell analysis in Balb/c mice; assay type: in vivo, mouse; conditions: 5 mg/kg, spleen, CD21/CD23 FACS, three animals
Description: (§2) Balb/c mice were injected four times every four days with 5 mg/kg of α-gD isotype control, α-NRR1 or α-NRR2, and cells were harvested from the thymus or spleen on day 13, one day after the fourth dose. (A) Thymus weight measurements. Thymus weights (in mg) are expressed relative to total body weight (in g). Values represent the mean plus standard deviation for three mice per group. (B) Thymus cell count. (C) CD4 and CD8 FACS to identify CD4^+/CD8^+ double-positive T cells. Numbers represent the percentage of thymic cells in the double-negative, single-positive and double-positive populations. […] (D) CD21 and CD23 FACS to identify marginal zone B cells. Numbers represent the mean percentages ±standard deviation (from three animals) of cells within the MZB gate, which is boxed; p values are also noted; representative dot plots from one of the three animals in each group are graphed.
(§3) Splenocytes were isolated from the mice and were stained for FACS with B220-PerCP, CD23-PE and CD21-FITC (BD Biosciences) as previously described (Saito, et al., Immunity, Vol. 18, 675-685, May 2003).

[4] = tested on: thymus, CD4+/CD8+ double-positive T cells; experiment: In vivo thymus / T cell development in Balb/c mice; set-up: species or system mouse; conditions: 5 mg/kg four times every four days
Description: as §2, §3

B1: anti-NRR2: affinity matured form of Antibody D, phage library-derived human anti-Notch2 NRR monoclonal antibody (antibody, V domains shown)
VH: EVQLVESGGGLVQPGGSLRLSCAASGYTFSSYGMSWVRQAPGKGLEWVSYIYPYSGATYYADSVKGRFTISADTSKNTAYLQMNSLRAEDTAVYYCARHSGYYRISSAMDVWGQGTLVTVSA
VL: DIQMTQSPSSLSASVGDRVTITCRASQNIKRFLAWYQQKPGKAPKLLIYGASTRESGVPSRFSGSGSGTDFTLTISSLQPEDFATYYCQQYYRSPHTFGQGTKVEIKR
LOX-IMVI melanoma cells
  cell viability: decrease in viability
[1]
  binding to human or mouse sequences of the other three non-targeted receptors: no binding
[2]
  binding to chimera containing only the LNR-A and HD-C subdomains from NRR2: weak but detectable binding
  binding to chimera with LNR-A of NRR1 in the NRR2 backbone: completely disrupted
  binding to chimeras C.Hn and BC (only three subdomains from NRR2): full binding
  binding to chimeras with swaps of LNR-B or LNR-C in the NRR2 backbone: no effect
SK23 melanoma cells
  cell viability: decrease in viability
[3]
  percentage of cells within the MZB gate (mean ± standard deviation): 0.97% and 0.97+/−0.45%
[4]; day 13
  total number of cells in the thymus: not
[4]; day 13, FACS
  percentage of thymic cells in the CD4+/CD8+ population: 80%
